From article PMC2730992 (Molecular and biochemical parasitology, 2009)
Each block holds one compound with its values, some of them ahead of it.

Tests used:
[1] = biological target: T1, TcAdoMetDC (T. cruzi AdoMetDC homodimer) (Trypanosoma cruzi, UniProt O76240); assay: activation of AdoMet decarboxylation, […]CO2 trapping; type: biochemical; settings: 5 mM putrescine; allosteric activator; pH 8.0, 37 °C
T1 sequence (O76240 1-85): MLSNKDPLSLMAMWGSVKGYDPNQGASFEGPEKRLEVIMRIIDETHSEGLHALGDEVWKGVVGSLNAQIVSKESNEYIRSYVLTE
T1 sequence (O76240 86-370): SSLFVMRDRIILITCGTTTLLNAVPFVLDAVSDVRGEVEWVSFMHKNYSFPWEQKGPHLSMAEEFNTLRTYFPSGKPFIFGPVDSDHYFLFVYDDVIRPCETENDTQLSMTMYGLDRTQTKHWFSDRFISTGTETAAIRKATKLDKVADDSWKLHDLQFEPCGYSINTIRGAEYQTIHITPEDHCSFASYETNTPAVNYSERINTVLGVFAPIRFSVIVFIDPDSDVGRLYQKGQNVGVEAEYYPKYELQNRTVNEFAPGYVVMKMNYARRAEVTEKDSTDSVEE

[2] = biological target: T. cruzi S-adenosylmethionine decarboxylase (AdoMetDC), His6-tagged (Trypanosoma cruzi)
[3] = biological target: T. brucei S-adenosylmethionine decarboxylase (AdoMetDC), His6-tagged (Trypanosoma brucei)
[4] = biological target: T. cruzi S-adenosylmethionine decarboxylase (AdoMetDC), His6-tagged (Trypanosoma cruzi); remark: listed apart in the source

Compound: NCCCCN [putrescine]
activation of AdoMet decarboxylation, 14CO2 trapping [1]: the T. cruzi AdoMetDC enzyme was stimulated by putrescine

kcat/Km of AdoMet decarboxylation, co-purified heterodimer, 5 mM putrescine [2]: 5100 M⁻¹ s⁻¹ | kcat/Km of AdoMet decarboxylation, co-purified heterodimer, no putrescine [2]: 1030 M⁻¹ s⁻¹
Compound: T. cruzi prozyme, untagged (natural protein)

Compound: T. cruzi prozyme, His6-tagged (natural protein)
stimulation of T. brucei AdoMetDC activity by T. cruzi prozyme, no putrescine [3]: 60 fold

Compound: T. brucei prozyme, His6-tagged (natural protein)
increase of T. cruzi AdoMetDC activity by T. brucei prozyme, no putrescine [4]: 70 fold
